Measured values: paper PMC10687086, “Illuminating the mechanism and allosteric behavior of NanoLuc luciferase” (Nature Communications, 2023)

How the values were obtained:
Experiment in all cases: luminescence, global fit of progress curves
Type in all cases: biochemical, Oplophorus gracilirostris
Details in all cases: 100 mM potassium phosphate pH 7.50, 37 °C, co-substrate O2, pH 7.5
[1] = substrate: O=c1c(Cc2ccco2)nc2c(Cc3ccccc3)[nH]c(-c3ccccc3)cn1-2
Source text: (§1) luminescence, global fit of progress curves on NanoLuc luciferase (NLuc)

[2] = substrate: Oc1ccc(Cc2nc3c(Cc4ccccc4)nc(-c4ccc(O)cc4)cn3c2O)cc1
Source text: as §1

[3] = substrate: O=c1c(Cc2ccco2)nc2c(Cc3ccccc3)[nH]c(-c3ccccc3)cn1-2; remark: listed apart in the source
[4] = substrate: Oc1ccc(Cc2nc3c(Cc4ccccc4)nc(-c4ccc(O)cc4)cn3c2O)cc1; remark: listed apart in the source

B1: NanoLuc luciferase (NLuc) (Oplophorus gracilirostris; A31E/A60N/A81I/F95D/I117V/K70R/L54V/L99Q/M102K/N193R/P142E/Q151K/Q38R/Q45L/V71I/Y121A/Y165I) (protein)
chain: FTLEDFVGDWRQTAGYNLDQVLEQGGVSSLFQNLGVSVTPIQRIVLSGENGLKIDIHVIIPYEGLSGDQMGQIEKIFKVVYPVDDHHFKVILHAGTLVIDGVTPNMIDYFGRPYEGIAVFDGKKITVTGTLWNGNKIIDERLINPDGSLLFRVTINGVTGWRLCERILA
notes: engineered 19 kDa catalytic subunit of OLuc (16 residues mutated); monomer in solution, homotetramer in crystals
- Km [1]: 1.29 ± 0.02 µM
- kcat [1]: 0.519 ± 0.007 s⁻¹
- kcat/Km [1]: 402000 ± 6000 M⁻¹ s⁻¹
- Km [2]: 3.74 ± 0.09 µM
- kcat [2]: 0.225 ± 0.004 s⁻¹
- kcat/Km [2]: 60000 ± 1000 M⁻¹ s⁻¹

B2: NanoLuc luciferase (NLuc) (Oplophorus gracilirostris; A31E/A60N/A81I/D36R/F95D/I117V/K116R/K70R/L54V/L99Q/M102K/N193R/P142E/Q151K/Q38R/Q45L/V71I/Y165I) (protein)
chain: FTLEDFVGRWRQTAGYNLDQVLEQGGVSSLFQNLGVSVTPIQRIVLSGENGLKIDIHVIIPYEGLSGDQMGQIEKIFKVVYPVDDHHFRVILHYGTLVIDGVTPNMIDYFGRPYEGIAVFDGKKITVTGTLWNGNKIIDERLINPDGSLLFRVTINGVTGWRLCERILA
notes: as for B1
- Km [3]: 0.157 ± 0.009 µM
- kcat [3]: 5.2 ± 0.1 s⁻¹
- kcat/Km [3]: 3.3e+07 ± 2e+06 M⁻¹ s⁻¹
- Km [4]: 0.46 ± 0.01 µM
- kcat [4]: 16.8 ± 0.6 s⁻¹
- kcat/Km [4]: 3.7e+07 ± 1e+06 M⁻¹ s⁻¹

B3: NanoLuc luciferase (NLuc) (Oplophorus gracilirostris; A31E/A60N/A81I/D36R/F95D/H84A/I117V/K116R/K70R/L54V/L99Q/M102K/N193R/P142E/Q151K/Q38R/Q45L/V71I/Y165I) (protein)
chain: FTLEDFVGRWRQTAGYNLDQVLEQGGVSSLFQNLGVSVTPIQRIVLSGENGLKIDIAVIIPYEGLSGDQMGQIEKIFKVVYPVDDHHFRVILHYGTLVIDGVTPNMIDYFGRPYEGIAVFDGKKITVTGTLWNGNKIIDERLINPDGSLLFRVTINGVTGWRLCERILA
notes: as for B1
- Km [2]: 0.77 ± 0.07 µM
- kcat [2]: 40 ± 4 s⁻¹
- kcat/Km [2]: 7e+07 ± 7e+06 M⁻¹ s⁻¹
